Data: the DeepSol protein solubility set

assay: soluble on expression in E. coli; label from the status in PepcDB or PDB records

Soluble on expression in E. coli, not soluble:
MGSDKIHHHHHHMYVAVKGGETAIANAHSLLADRRRGDRSLPTMTVDQIVEQLTLAVGRVMAEASLYDRKLAALAIKQARGDMIEAIFLLRAYRTTLPRFGLSEPVDTGAMRIERRISATYKDLPGGQLLGPTFDYTHRLLDPSLLEEGDVEPPVQKIPTSEAAMRVSDILREEGLIEPDGDMPEDHLAGDITRQPIEFPMARDLRLQSLARGDEGFLLALAYSTQRGYGRSHPFAGEIRLGEVEVELDVPELGFAVSLGRIQVTECQMVNQFKGSSKAPPQFTRGYGLVFGQSERKAMAMSLVDRSLRAEELGEDITAPAQDQEFVLSHCDNVQATGFVEHLKLPHYVDFQAELDLVRRMRSEHEQARQQGLDLSEAAE
MGSDKIHHHHHHMYYGSIITVLSSDKNKLTGIAEKLGKLHETAKTKIYYRKKGEYIRSILLTTEYPEKIIDLAEALSLSSTAILYIPETLTWMDGELALLIDSLNTHNKIVISNLDQGKINNILGSLSSFTKFDLYNDIPDLSETEEEDKGIVYVDRVFTVKGVGTVVTGFSFTNVEVHEKLVALPYNKEVEIKSIQVLDEDQKSVSTGVRIGFALKNVKEEEIEDLLYLVKPNVKVVKEIEGQITNYKWSTINQGQNHIIVKGHGIAANIKVDNQKAKIMSSVPIPIVDNRILVLNVNVRQGKPRVAGYISL
MGSDKIHHHHHHNEAQVSAVKQFVEGFNQKNVQSMQSHTTDDVKWFSISEGAMALETSDKEELGEAMQNYFSGYSSAHAKIVNLVNSGDFISTVEQVKWQNEGKWFMQCSLGVYRFKQNKIASVWYYPAHVCDATNAQVN
MGSDKIHHHHHHQDGNQPALVDALVVNARTPGPAWWSVSKGDKKVWVLGIGAPVPADAKWDGRAFERRVKASRQLILVPPSKTRFEKNTIKADRKWLDELTEAERARLAEVATQTGRKLEFYTLFRPNFAGLLINSELQARAKPKMGKLLDLSVRARRLGARLVPAGGLDAQAMKASFQVGGKDSLICLRWAMRPRDAAALREQRAQAWMRGDVRTLLVGPAAYDPCVQAMAAMQASLENNEGALANTIAATLDRGDGAVALVGLVPLLREGGVLDQLRKRGYLIETPAQMDDED
MGSDKIHHHHHHQSLKLSDNVVRIGVLTDLSGVYSELSGQGSVKAAQMAAADFMAMNPSFRGKVQVIGVDHQNKADVASNKAAEMIDRQKVDVLMDLPTSSAALAASEVARQKKVPVMVVTGGTTALTNEKCNKYTFHYAYDNYMLANGTGTAVTKRGGNSWYIIYPNYAFGQDLNRQMTAAIQENGGKLVAPSDATPFPNTDFSSYLLKAQGLKPKVFGTMQAGADLVNVVKQYNEFGLRQQGIGLGIGLLFETDVAALGQDAFAGALATVPWYWNMDQRARDWAAKFEKAFGKKPTWAQAGVYSATMTYLQAVARAKSDDGDAVVKALEGHRFSDFFARNAYVRPQDHRVMLDVYTVQVKPKAQAKENGDYFNKVATIPAARAFMPLSESKCRM
MGSDKIHHHHHHQTPAPLAEWQFSAGIPLEKLFEDTIPDWEVRLGGAAMVRPRYDGSSNYIVVGGPSIDIRYRDIAFASIGEGLGVNVLRGKNWRAGIALSYNLGRRAKETSPLLDGMENINPAPEAKLFAEYAVSKEFPLVMRVDARRSLGGSDGWIGDIGAYMPMPGSSEKFFWFAGPTMTLADSRYMNAWYGVSASQARPGRPQFSPSGGVRSYGFGVSAVWFFDKHWFATTDVAVMQLVGDAKRSPLTQSSTNGVFDVSVNYQF
MGSDKIHHHHHHSCGDKMNKNTGALEFDSIQVNETAHLFGDTAKPACNLTINFAYPVKSTDNKLKDSLNSYFIAACFGEGYIGEKPAQVVKEYTEHYVKEYRTDLEPMYAEDEKNKESEGSIGAWYSYYKGIESHVQLYYKNLLVYRINYNEYTGGAHGIYMTTFLNMDLINLRPLKLDDIFTGDYKEALTDLLWNQLMADKKVTTHEALEDMGYGSTGDIAPTENFYLDKDGITFYYNVYDITPYAMGPVEIKIPYEMMEHMLGSNPIIGEMKSK
MGSDKIHHHHHHSDIATSVTQGGEQRLADGGYFELGASVYGTNQLDIRQTEHESIQPSLLISGMYQYKGLFAEMVHQSQDGINFGINLWSSNNWSLDLLAVNYQGSAGRSENTELSQLDEDGRNAYLMETDSIFIGAGFRVTRYWDDHYVFQYRIVSDYFDDQGISTTARLGKSWQVRNWNFHALASIEYASTKLSRNLFGVESMEATELFPEYRPSSAVTYGMELGVAYPLSEKLVFRTVYRLNVLSKEITASPFNQADYGSFFNASFSYVF
